Measurements published in patent US20250215104A1 (WALDEN BIOSCIENCES, published 2025).

Experiments:
[1] = biological target: T1, cynomolgus soluble urokinase plasminogen activator receptor (suPAR) (cynomolgus, UniProt Q9GK78 23-303, limits assumed); assay: BLI (Octet) off-rate screen of scFv clones
T1 construct: Column head says only 'cynomologus'; also called cynomolgus suPAR; cynomolgus uPAR

[2] = biological target: T2, human soluble urokinase plasminogen activator receptor (suPAR) (human, UniProt Q03405 23-303, limits assumed); assay: BLI (Octet) off-rate screen of scFv clones
T2 construct: Column head says only 'human'; also called human suPAR; hsuPAR
T2 sequence (Q03405 23-303 limits assumed): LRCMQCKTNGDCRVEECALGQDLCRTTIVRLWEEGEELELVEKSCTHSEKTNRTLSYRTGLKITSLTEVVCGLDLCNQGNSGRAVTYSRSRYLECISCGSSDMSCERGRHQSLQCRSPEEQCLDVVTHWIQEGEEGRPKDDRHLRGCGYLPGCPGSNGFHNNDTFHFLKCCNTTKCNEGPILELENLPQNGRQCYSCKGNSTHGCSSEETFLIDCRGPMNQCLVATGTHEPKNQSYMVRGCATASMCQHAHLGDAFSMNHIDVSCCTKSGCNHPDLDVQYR

T1 sequence (Q9GK78 23-303 limits assumed): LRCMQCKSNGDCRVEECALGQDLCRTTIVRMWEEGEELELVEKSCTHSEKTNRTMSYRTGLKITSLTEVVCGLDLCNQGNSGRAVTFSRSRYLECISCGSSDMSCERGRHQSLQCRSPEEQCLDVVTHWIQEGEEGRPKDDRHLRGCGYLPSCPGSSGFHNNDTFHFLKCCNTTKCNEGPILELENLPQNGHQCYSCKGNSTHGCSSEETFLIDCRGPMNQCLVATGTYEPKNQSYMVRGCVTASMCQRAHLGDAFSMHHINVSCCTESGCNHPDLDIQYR

| Binder | koff [1] | koff [2] |
| --- | --- | --- |
| suPAR_DB02_F12 (scFv, V domains shown, scFv clone from phage display) VH: QVQLVQSGAEVKKPGASVKVSCKASGDMFTGYYLHWVRQAPGQGLEWMGWIDHENGNTIYDQKFQGRVTMTRDTSTSTVYMELSSLRSEDTAVYYCARGYDVDWFVYWGQGTLVTVSS VL: DIQMTQSPSSLSASVGDRVTITCSARSSVSYMYWYQQKPGKAPKLLIYRTSSLASGVPSRFSGSGSGTDFTLTISSLQPEDFATYYCQQYHSYPPTFGGGTKVEIK | 9.82e-05 s⁻¹ | 0.00494 s⁻¹ |
| suPAR_DB02_E06 (scFv, V domains shown, scFv clone from phage display) VH: QVQLVQSGAEVKKPGASVKVSCKASGYTFTGYYMHWVRQAPGQGLEWMGWIDPENGNTIYDQKFQGRVTMTRDTSTSTVYMELSSLRSEDTAVYYCARGYDVDWFVYWGQGTLVTVSS VL: DIQMTQSPSSLSASVGDRVTITCSARSSVSYMYWYQQKPGKAPKLLIYRTSNLASGVPSRFSGSGSGTDFTLTISSLQPEDFATYYCQQYHSYPPTFGGGTKVEIK | 0.000295 s⁻¹ | 0.00239 s⁻¹ |
| suPAR_DB02_E02 (scFv, V domains shown, scFv clone from phage display) VH: QVQLVQSGAEVKKPGASVKVSCKASGYTFTDYYMHWVRQAPGQGLEWMGWIDHENGNTIYDQKFQGRVTMTRDTSTSTVYMELSSLRSEDTAVYYCARGYDVDWFVYWGQGTLVTVSS VL: DIQMTQSPSSLSASVGDRVTITCSARSSVSYMYWYQQKPGKAPKLLIYRTSSLQSGVPSRFSGSGSGTDFTLTISSLQPEDFATYYCQQYHSYPPTFGGGTKVEIK | 0.000189 s⁻¹ | 0.00438 s⁻¹ |
| suPAR_DB02_H02 (scFv, V domains shown, scFv clone from phage display) VH: QVQLVQSGAEVKKPGASVKVSCKASGYTFTGYYLHWVRQAPGQGLEWMGWIDPENGSTIYDQKFQGRVTMTRDTSTSTVYMELSSLRSEDTAVYYCARGYDVDWFVYWGQGTLVTVSS VL: DIQMTQSPSSLSASVGDRVTITCSARSSVSYMYWYQQKPGKAPKLLIYRTSNLASGVPSRFSGSGSGTDFTLTISSLQPEDFATYYCQQYHSYPPTFGGGTKVEIK | 0.000498 s⁻¹ | 0.00579 s⁻¹ |
| suPAR_DB02_E08 (scFv, V domains shown, scFv clone from phage display) VH: QVQLVQSGAEVKKPGASVKVSCKASGYNIKSYYIHWVRQAPGQGLEWMGWIDHENGNTIYDQKFQGRVTMTRDTSTSTVYMELSSLRSEDTAVYYCAAGYDVDWFVYWGQGTLVTVSS VL: DIQMTQSPSSLSASVGDRVTITCSARSSVSYMYWYQQKPGKAPKLLIYRTSNLASGVPSRFSGSGSGTDFTLTISSLQPEDFATYYCQQYHSYPPTFGGGTKVEIK | 0.000363 s⁻¹ | 0.0031 s⁻¹ |
| suPAR_DB02_D03 (scFv, V domains shown, scFv clone from phage display) VH: QVQLVQSGAEVKKPGASVKVSCKASGYTFTSHYMHWVRQAPGQGLEWMGWIDHENGNTIYDQKFQGRVTMTRDTSTSTVYMELSSLRSEDTAVYYCARGYDVDWFVYWGQGTLVTVSS VL: DIQMTQSPSSLSASVGDRVTITCSARSSVSYMYWYQQKPGKAPKLLIYRTSNLASGVPSRFSGSGSGTDFTLTISSLQPEDFATYYCQQYHSYPPTFGGGTKVEIK | 0.000188 s⁻¹ | 0.0055 s⁻¹ |
| suPAR_DB02_D10 (scFv, V domains shown, scFv clone from phage display) VH: QVQLVQSGAEVKKPGASVKVSCKASGYTFTGYYMHWVRQAPGQGLEWMGWIDPEGGNTIYDQKFQGRVTMTRDTSTSTVYMELSSLRSEDTAVYYCARGYDVDWFVYWGQGTLVTVSS VL: DIQMTQSPSSLSASVGDRVTITCSARSSVSYMYWYQQKPGKAPKLLIYRTSNLASGVPSRFSGSGSGTDFTLTISSLQPEDFATYYCQQYHSYPPTFGGGTKVEIK | 0.000381 s⁻¹ | 0.00178 s⁻¹ |
| suPAR_DB02_G05 (scFv, V domains shown, scFv clone from phage display) VH: QVQLVQSGAEVKKPGASVKVSCKASGYTFTGHYMHWVRQAPGQGLEWMGWIDPEGGNTIYAQKFQGRVTMTRDTSTSTVYMELSSLRSEDTAVYYCARGYDVDWFVYWGQGTLVTVSS VL: DIQMTQSPSSLSASVGDRVTITCSASSSVSYMYWYQQKPGKAPKLLIYRTSNLASGVPSRFSGSGSGTDFTLTISSLQPEDFATYYCQQYHSYPPTFGGGTKVEIK | 0.000521 s⁻¹ | 0.00242 s⁻¹ |
| suPAR_DB02_D05 (scFv, V domains shown, scFv clone from phage display) VH: QVQLVQSGAEVKKPGASVKVSCKASGYTFTSYYMHWVRQAPGQGLEWMGWIDHENGNTIYDQKFQGRVTMTRDTSTSTVYMELSSLRSEDTAVYYCARGYDVDWFVYWGQGTLVTVSS VL: DIQMTQSPSSLSASVGDRVTITCSARSSVSYMYWYQQKPGKAPKLLIYRTSNLASGVPSRFSGSGSGTDFTLTISSLQPEDFATYYCQQYHSYPPTFGGGTKVEIK | 0.000305 s⁻¹ | 0.00358 s⁻¹ |
| suPAR_DB02_E04 (scFv, V domains shown, scFv clone from phage display) VH: QVQLVQSGAEVKKPGASVKVSCKASGYTFTNYYIQWVRQAPGQGLEWMGWIDHENGNTIYDQKFQGRVTMTRDTSTSTVYMELSSLRSEDTAVYYCARGYDVDWFVYWGQGTLVTVSS VL: DIQMTQSPSSLSASVGDRVTITCSARSSVSYMYWYQQKPGKAPKLLIYRTSNLASGVPSRFSGSGSGTDFTLTISSLQPEDFATYYCQQYHSYPPTFGGGTKVEIK | 0.000217 s⁻¹ | 0.00311 s⁻¹ |
| suPAR_DB02_G09 (scFv, V domains shown, scFv clone from phage display) VH: QVQLVQSGAEVKKPGASVKVSCKASGFTIKDYYMHWVRQAPGQGLEWMGWIDPSNGATNSAQNFQGRVTMTRDTSTSTVYMELSSLRSEDTAVYYCARGYDVDWFVYWGQGTLVTVSS VL: DIQMTQSPSSLSASVGDRVTITCRASSSVSYMYWYQQKPGKAPKLLIYRTSNLASGVPSRFSGSGSGTDFTLTISSLQPEDFATYYCQQYHSYPPTFGGGTKVEIK | 0.00025 s⁻¹ | 0.00733 s⁻¹ |
| suPAR_DB02_D02 (scFv, V domains shown, scFv clone from phage display) VH: QVQLVQSGAEVKKPGASVKVSCKASGDTFTSYYMHWVRQAPGQGLEWMGWIDHEGGNTSYAQKFQGRVTMTRDTSTSTVYMELSSLRSEDTAVYYCARGYDVDWFVYWGQGTLVTVSS VL: DIQMTQSPSSLSASVGDRVTITCSARSSVSYMYWYQQKPGKAPKLLIYRTSNLASGVPSRFSGSGSGTDFTLTISSLQPEDFATYYCQQYHSYPPTFGGGTKVEIK | 2.49e-05 s⁻¹ | 0.00436 s⁻¹ |
| suPAR_DB02_G10 (scFv, V domains shown, scFv clone from phage display) VH: QVQLVQSGAEVKKPGASVKVSCKASGYTFTNYYMHWVRQAPGQGLEWMGWIDPENGSTIYDQKFQGRVTMTRDTSTSTVYMELSSLRSEDTAVYYCARGYDVDWFVYWGQGTLVTVSS VL: DIQMTQSPSSLSASVGDRVTITCRARQSVSYMYWYQQKPGKAPKLLIYRTSNLETGVPSRFSGSGSGTDFTLTISSLQPEDFATYYCQQYHSYPPTFGGGTKVEIK | 0.00043 s⁻¹ | 0.00562 s⁻¹ |
| suPAR_DB02_C12 (scFv, V domains shown, scFv clone from phage display) VH: QVQLVQSGAEVKKPGASVKVSCKASGYTLTDYYMHWVRQAPGQGLEWMGWIDPEGGNTSYDQKFQGRVTMTRDTSTSTVYMELSSLRSEDTAVYYCARGYDVDWFVYWGQGTLVTVSS VL: DIQMTQSPSSLSASVGDRVTITCSARSSVSYMYWYQQKPGKAPKLLIYRTSNLASGVPSRFSGSGSGTDFTLTISSLQPEDFATYYCQQYHSYPPTFGGGTKVEIK | 0.000582 s⁻¹ | 0.00319 s⁻¹ |
| suPAR_DB02_C10 (scFv, V domains shown, scFv clone from phage display) VH: QVQLVQSGAEVKKPGASVKVSCKASGYTFTDYYVHWVRQAPGQGLEWMGWIDHEGGSTIYDQKFQGRVTMTRDTSTSTVYMELSSLRSEDTAVYYCARGYDVDWFVYWGQGTLVTVSS VL: DIQMTQSPSSLSASVGDRVTITCSARSSVSYMYWYQQKPGKAPKLLIYRTSNLASGVPSRFSGSGSGTDFTLTISSLQPEDFATYYCQQYHSYPPTFGGGTKVEIK | 0.000198 s⁻¹ | 0.00257 s⁻¹ |
| suPAR_DB02_D08 (scFv, V domains shown, scFv clone from phage display) VH: QVQLVQSGAEVKKPGASVKVSCKASGYTFTNYYMHWVRQAPGQGLEWMGWIDHENGNTIYDQKFQGRVTMTRDTSTSTVYMELSSLRSEDTAVYYCARGYDVDWFVYWGQGTLVTVSS VL: DIQMTQSPSSLSASVGDRVTITCRARQSVSYMYWYQQKPGKAPKLLIYRTSNLASGVPSRFSGSGSGTDFTLTISSLQPEDFATYYCQQYHSYPPTFGGGTKVEIK | 0.000345 s⁻¹ | 0.00202 s⁻¹ |
| suPAR_DB02_G11 (scFv, V domains shown, scFv clone from phage display) VH: QVQLVQSGAEVKKPGASVKVSCKASGDTFTGYYMHWVRQAPGQGLEWMGWIDHEGGNTIYAQKFQGRVTMTRDTSTSTVYMELSSLRSEDTAVYYCARGYDVDWFVYWGQGTLVTVSS VL: DIQMTQSPSSLSASVGDRVTITCSARSSVSYMYWYQQKPGKAPKLLIYRTSNLASGVPSRFSGSGSGTDFTLTISSLQPEDFATYYCQQYHSYPPTFGGGTKVEIK | 0.00013 s⁻¹ | 0.00561 s⁻¹ |
| suPAR_DB02_E07 (scFv, V domains shown, scFv clone from phage display) VH: QVQLVQSGAEVKKPGASVKVSCKASGYNFNAYYMHWVRQAPGQGLEWMGWIDPHSGGTNYAQKFQGRVTMTRDTSTSTVYMELSSLRSEDTAVYYCARGYDVDWFVYWGQGTLVTVSS VL: DIQMTQSPSSLSASVGDRVTITCSARSSVSYMYWYQQKPGKAPKLLIYRTSNLASGVPSRFSGSGSGTDFTLTISSLQPEDFATYYCQQYHSYPPTFGGGTKVEIK | 0.000177 s⁻¹ | 0.00392 s⁻¹ |
| suPAR_DB02_D12 (scFv, V domains shown, scFv clone from phage display) VH: QVQLVQSGAEVKKPGASVKVSCKASGYTFSNYYMHWVRQAPGQGLEWMGWIDHEGGSTIYAQKFQGRVTMTRDTSTSTVYMELSSLRSEDTAVYYCARGYDVDWFVYWGQGTLVTVSS VL: DIQMTQSPSSLSASVGDRVTITCSARSSVSYMYWYQQKPGKAPKLLIYRTSNLASGVPSRFSGSGSGTDFTLTISSLQPEDFATYYCQQSHSYPPTFGGGTKVEIK | 0.0038 s⁻¹ | 0.00611 s⁻¹ |
| suPAR_DB02_D11 (scFv, V domains shown, scFv clone from phage display) VH: QVQLVQSGAEVKKPGASVKVSCKASGFNIKDYYIHWVRQAPGQGLEWMGWIDPENGNTIYDQKFQGRVTMTRDTSTSTVYMELSSLRSEDTAVYYCARGYDVDWFVYWGQGTLVTVSS VL: DIQMTQSPSSLSASVGDRVTITCSARSSVSYMYWYQQKPGKAPKLLIYRTSNLASGVPSRFSGSGSGTDFTLTISSLQPEDFATYYCQQYHSYPPTFGGGTKVEIK | 0.000265 s⁻¹ | 0.00415 s⁻¹ |
| suPAR_DB02_C11 (scFv, V domains shown, scFv clone from phage display) VH: QVQLVQSGAEVKKPGASVKVSCKASGYNFKDYYIHWVRQAPGQGLEWMGWIDHENGSTIYAQKFQGRVTMTRDTSTSTVYMELSSLRSEDTAVYYCARGYDVDWFVYWGQGTLVTVSS VL: DIQMTQSPSSLSASVGDRVTITCSARQSVSYMYWYQQKPGKAPKLLIYRTSNLASGVPSRFSGSGSGTDFTLTISSLQPEDFATYYCQQYHSYPPTFGGGTKVEIK | 0.0004 s⁻¹ | 0.0049 s⁻¹ |
